Series [1] deals with MS2 coat protein (literature) (Enterobacteria phage MS2) (UniProt P03612). The following applies: CITED Lowary and Uhlenbeck 1987, cited from earlier work.
The target of series [2] is MS2 coat protein (MCP) (Enterobacteria phage MS2, UniProt P03612 P03612:2-130). Nature of the series: EMSA; sub-nanomolar; exact value only in figure; about 10-fold tighter than wt (p109); 10 mM Tris, 100 mM NaCl, 0.1 mM EDTA, tRNA, heparin, room temperature, 3 h. The following applies: tags: MBP-TEV N-terminal, C-terminal 6xHis (plasmid pET336, E. coli Rosetta2); chain copies: 2 (inferred); label: 5' fluorescein; hairpin. The protocol: Design of a new MBS-MCP system faithfully recapitulating mRNA kinetics —We considered four variables that could influence the ability of the MS2 array to block degradation by […] when MCP is bound. First, the loop sequence can affect the affinity of MCP for the stem. […] The current MBSV5 and MBSORF versions have a U to C change in position −5 of all loops (FIG. 2A-C). We compared the high affinity C-variant loops to the wt-loops (FIG. 2D). The affinities of the MBS-MCP binding were analyzed by electrophoretic mobility shift assay (EMSA). As a control, we used the original loop sequence from the bacteriophage with a U or a C at position −5. In addition, C or U variants were generated for two MS2 loops (Loop1 and Loop2), each of them with a different stem sequence (FIG. 2D). Apparent equilibrium dissociation constants (Kd) were extracted from plots of MCP bound versus free (FIG. 2E-G).
Complexes were monitored and quantified by EMSA as previously described (Chao et al., 2008). In brief, 100 pM RNAs were incubated at room temperature for three hours with 2 fold dilutions of MCP in 10 mM Tris, 100 mM NaCl, 0.1 mM EDTA, 0.01 mg/mL tRNA, […] heparin and 0.01% IGEPAL CA630. Complexes were then run using 5% native PAGE in 0.5×TBE and visualized using the Typhoon 9400 variable mode laser scanner (GE Healthcare).
On the technique in general: In EMSA bound probe runs differently from free probe, usually more slowly.

In patent US20210139964, “RNA TAGGING SYSTEM FOR VISUALIZATION OF SINGLE MRNA MOLECULES” (ALBERT EINSTEIN COLLEGE OF MEDICINE, published 2021) one finds Kd data, which are given here for three molecules.

Like-named read-outs stand apart in the source and are kept apart here. Bounds are passed on as bounds.

Sequence of MS2 coat protein (literature) (Enterobacteria phage MS2) (P03612 2-130): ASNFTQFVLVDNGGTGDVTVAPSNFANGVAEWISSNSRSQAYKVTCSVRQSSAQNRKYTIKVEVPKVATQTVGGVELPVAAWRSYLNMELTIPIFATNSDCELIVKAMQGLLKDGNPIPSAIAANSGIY
Sequence of MS2 coat protein (MCP) (P03612 2-130, one chain of several): as the sequence (P03612 2-130) above

The Kd is a measure of binding affinity in units of concentration. With “MS2 C-variant operator loop (literature)”, the equilibrium dissociation constant (Kd) in series [1] (dissociation about 90 times slower than wt) is 1 nM. As for MS2 wt operator loop (literature), the dissociation constant Kd in series [1] (Valegard et al.) was 10 nM. As to ACAUGAGGAUCACCCAUGU (ssRNA) [MS2 C-variant stem loop], the dissociation constant Kd in series [2] is < 1 nM.
